Experimental data from IntAct's records for PubMed 18166655.

B1: Caspase drICE (Drosophila melanogaster (Fruit fly)), O01382 (parent)
chain: MDATNNGESADQVGIRVGNPEQPNDHTDALGSVGSGGAGSSGLVAGSSHPYGSGAIGQLANGYSSPSSSYRKNVAKMVTDRHAAEYNMRHKNRGMALIFNHEHFEVPTLKSRAGTNVDCENLTRVLKQLDFEVTVYKDCRYKDILRTIEYAASQNHSDSDCILVAILSHGEMGYIYAKDTQYKLDNIWSFFTANHCPSLAGKPKLFFIQACQGDRLDGGVTMQRSQTETDGDSSMSYKIPVHADFLIAYSTVPGFYSWRNTTRGSWFMQSLCAELAANGKRLDILTLLTFVCQRVAVDFESCTPDTPEMHQQKQIPCITTMLTRILRFSDKQLAPAGRV
partner: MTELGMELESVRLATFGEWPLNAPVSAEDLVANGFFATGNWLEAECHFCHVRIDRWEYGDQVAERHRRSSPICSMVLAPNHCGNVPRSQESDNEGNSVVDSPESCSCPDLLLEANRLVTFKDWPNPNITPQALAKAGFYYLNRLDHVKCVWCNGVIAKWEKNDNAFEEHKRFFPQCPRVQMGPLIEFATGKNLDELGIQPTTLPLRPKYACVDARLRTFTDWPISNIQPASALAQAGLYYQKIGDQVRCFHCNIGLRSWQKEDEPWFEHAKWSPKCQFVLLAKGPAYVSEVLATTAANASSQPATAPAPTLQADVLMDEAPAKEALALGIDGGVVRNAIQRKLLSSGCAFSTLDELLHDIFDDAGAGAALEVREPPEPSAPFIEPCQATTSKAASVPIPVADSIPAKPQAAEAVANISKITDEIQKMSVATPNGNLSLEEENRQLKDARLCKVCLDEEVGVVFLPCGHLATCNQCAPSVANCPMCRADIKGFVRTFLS
B2: Death-associated inhibitor of apoptosis 2 (Drosophila melanogaster (Fruit fly)), Q24307 (parent)
chain: B1 partner
partner: B1 chain
B3: Death-associated inhibitor of apoptosis 2 (Drosophila melanogaster (Fruit fly)), Q24307 (parent)
chain: B1 partner
partner: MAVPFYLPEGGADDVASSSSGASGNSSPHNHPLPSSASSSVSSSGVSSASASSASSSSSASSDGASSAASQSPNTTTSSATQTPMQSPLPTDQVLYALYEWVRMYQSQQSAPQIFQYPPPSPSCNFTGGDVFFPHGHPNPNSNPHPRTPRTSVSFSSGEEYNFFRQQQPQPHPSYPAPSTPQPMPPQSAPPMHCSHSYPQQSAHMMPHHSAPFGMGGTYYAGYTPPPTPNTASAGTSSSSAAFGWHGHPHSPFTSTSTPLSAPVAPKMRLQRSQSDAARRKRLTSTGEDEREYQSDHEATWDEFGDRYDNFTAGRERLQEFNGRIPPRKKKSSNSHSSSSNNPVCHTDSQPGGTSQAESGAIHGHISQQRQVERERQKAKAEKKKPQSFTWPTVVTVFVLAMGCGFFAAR
B4: Death-associated inhibitor of apoptosis 2 (Drosophila melanogaster (Fruit fly)), Q24307 (parent)
chain: B1 partner
partner: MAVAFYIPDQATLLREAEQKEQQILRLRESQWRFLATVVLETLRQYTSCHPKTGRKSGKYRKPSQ
B5: Caspase drICE (Drosophila melanogaster (Fruit fly)), O01382 (parent)
chain: B1 chain
partner: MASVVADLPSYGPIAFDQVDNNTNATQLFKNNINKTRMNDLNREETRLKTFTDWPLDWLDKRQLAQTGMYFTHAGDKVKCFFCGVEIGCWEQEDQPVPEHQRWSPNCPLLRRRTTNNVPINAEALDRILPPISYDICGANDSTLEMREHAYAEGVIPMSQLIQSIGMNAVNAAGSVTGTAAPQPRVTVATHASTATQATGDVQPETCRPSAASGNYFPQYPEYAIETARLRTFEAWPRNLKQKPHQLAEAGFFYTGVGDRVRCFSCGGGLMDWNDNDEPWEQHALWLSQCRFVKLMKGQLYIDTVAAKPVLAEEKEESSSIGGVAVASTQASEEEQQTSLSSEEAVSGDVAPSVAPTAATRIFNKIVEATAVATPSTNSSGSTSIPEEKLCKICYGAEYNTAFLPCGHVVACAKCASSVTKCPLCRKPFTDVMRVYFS
B6: Death-associated inhibitor of apoptosis 2 (Drosophila melanogaster (Fruit fly)), Q24307 (parent)
chain: B1 partner
partner: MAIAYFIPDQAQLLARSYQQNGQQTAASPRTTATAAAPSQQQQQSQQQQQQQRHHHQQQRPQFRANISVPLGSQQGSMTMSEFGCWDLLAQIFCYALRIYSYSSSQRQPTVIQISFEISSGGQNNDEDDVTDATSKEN

Variants of: B1
Settings: with diap2_drome Diap2, Q24307

| Variant | effect of a mutation on the interaction |
| --- | --- |
| A29V | decreasing interaction strength |

Variants of: B2
Settings: with drice_drome Drice

| Variant | effect of a mutation on the interaction |
| --- | --- |
| C249G | disrupting interaction strength |
| D100E | disrupting interaction strength |
| C149G | with no effect |
| D263A | disrupting interaction strength |
| D163A | with no effect |

Variants of: B3
Settings: with hid_drome hid

| Variant | effect of a mutation on the interaction |
| --- | --- |
| D100E | with no effect |

Variants of: B3
Settings: with hid_drome hid
Remark: another data set of the same source

| Variant | effect of a mutation on the interaction |
| --- | --- |
| C46G | with no effect |
| C149G;C249G | decreasing interaction strength |
| C249G | with no effect |
| C149G | with no effect |

Variants of: B4
Settings: with rpr_drome rpr

| Variant | effect of a mutation on the interaction |
| --- | --- |
| C249G | with no effect |
| C149G | decreasing interaction strength |
| C149G;C249G | decreasing interaction strength |
| C46G | with no effect |

Variants of: B5
Settings: with diap1_drome Diap1, Q24306

| Variant | effect of a mutation on the interaction |
| --- | --- |
| C211A | with no effect |

Variants of: B6
Settings: with grim_drome grim

| Variant | effect of a mutation on the interaction |
| --- | --- |
| C249G | with no effect |
| C46G | with no effect |
| C149G;C249G | disrupting interaction strength |
| C149G | decreasing interaction strength |
